Our source for the GDP release (decay of BODIPY FL GDP fluorescence) after addition of isoprenaline, 20 °C values is paper PMC11487556.

Assay [1] deals with truncated β1 adrenergic receptor (M. gallopavo β114-E130W, without an intact ICL3) (M. gallopavo) (UniProt P07700).
Assay [2] addresses β1 adrenergic receptor with an intact ICL3 (M. gallopavo β114E130WIC3) (M. gallopavo) (UniProt P07700).

For “mini Gs (engineered GTPase domain of the Gαs protein), construct R414, I208A (domain or fragment)”, the GDP release (decay of BODIPY FL GDP fluorescence) after addition of isoprenaline, 20 °C in assay [1] and in assay [2] was 60 s each time.
